We go through five molecules from US20240067747A1 (SHANGHAI HUAOTA BIOPHARMACEUTICAL, published 2024).

In experiment [1] the target is T1, Lysozyme from chicken egg (Sigma, L3790) (chicken, UniProt P00698 19-147).
T1 construct: Non-target molecule, amine-coupled to a CM5 chip
The experiment in a line: SPR, Biacore 8K, lysozyme immobilized on CM5, antibody at 1000 nM; buffer alone 16.9 RU. The method, then:
(§1) The non-specific adsorption effect of antigen-binding proteins and non-target molecules were determined by using the SPR method.
(§2) The series sensor chip CM5 (GE, #BR-1005-30) was equilibrated at room temperature for 20-30 min and then loaded into the Biacore 8K (GE) instrument. Lysozyme solution (Sigma, #L3790) from egg and trypsin inhibitor type 1-S (Sigma, #T-2327) from Glycine max were immobilized onto the CM5 chip using an amino coupling kit (GE, #BR-1000-50). The injection buffer was HBS-EP (1×) (GE, #BR-1006-69) and four equilibration cycles were set up. The polyclonal rabbit anti-lysozyme (ABcam, Ab391), anti-trypsin inhibitor antibodies (LifeSpan Biosciences, #LS-C76609), chimeric antibodies and humanized antibodies were diluted with equilibration buffer to 1000 nM, and the flow rate was set at 5 μL/min and injection channels 1, 2 and 3, Flow Cell 1 and 2 were selected. The association time was 10 min and the dissociation time was 10 min.
The PI of carboxymethyl dextran was 3.5, the PI of the trypsin inhibitor was 4.5, and the PI of lysozyme was 11.3. In the HBS-EP buffer solution with a pH of 7.4, carboxymethyl dextran and the trypsin inhibitor had strong negative charges, and lysozyme had strong positive charges.
On the technique in general: SPR reads the build-up and loss of mass on a sensor chip optically.

Experiment [2] deals with T2, Mouse CD73/NT5E protein (ACRO Biosystems, item No. CD3-M52H9) (mouse, UniProt Q61503 29-551).
T2 construct: Bought protein
T2 sequence (looked up): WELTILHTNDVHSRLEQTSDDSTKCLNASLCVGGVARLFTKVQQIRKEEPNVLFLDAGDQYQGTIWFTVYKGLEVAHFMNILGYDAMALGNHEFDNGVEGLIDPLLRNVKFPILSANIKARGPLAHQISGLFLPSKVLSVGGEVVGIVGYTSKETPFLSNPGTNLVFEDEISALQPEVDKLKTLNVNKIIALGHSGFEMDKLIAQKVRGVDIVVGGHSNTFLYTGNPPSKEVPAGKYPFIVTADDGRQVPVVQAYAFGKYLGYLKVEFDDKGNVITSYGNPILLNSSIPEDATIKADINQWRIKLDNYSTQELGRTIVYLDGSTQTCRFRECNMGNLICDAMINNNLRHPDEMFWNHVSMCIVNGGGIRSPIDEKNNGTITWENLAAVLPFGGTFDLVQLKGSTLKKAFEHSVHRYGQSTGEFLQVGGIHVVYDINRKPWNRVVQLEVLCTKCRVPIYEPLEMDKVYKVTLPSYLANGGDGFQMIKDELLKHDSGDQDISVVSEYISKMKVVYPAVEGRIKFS
Description: SPR, Biacore T200, antibody captured on protein A chip, CD73 as analyte. The method, then: In the tests, the assay buffer HBS-EP+ (pH 7.4) and the protein A chip (manufacturer: GE, item No.: 29-1275-56) were used.
The temperatures of a sample chamber and a flow path were set at 25° C., and the protein A chip respectively captured antigen-binding proteins as ligands and immobilized at about 100 RU. […] After association for 120 s at a flow rate of 30 μL/min, dissociation was carried out for 600 s. Regeneration was then carried out for 60 s with 10 mM Glycine (pH 1.5) at a flow rate of 50 μL/min to implement multi-cycle kinetic detection. A 1:1 binding model was selected for fitting analysis in a Fit local mode to acquire the association rate constant (ka), dissociation rate constant (kd) and dissociation equilibrium rate constant (KD).

Experiment [3] has as its target T3, CD73 on the cell surface of Calu6 cells (UniProt P21589 27-549, limits assumed).
T3 sequence (looked up): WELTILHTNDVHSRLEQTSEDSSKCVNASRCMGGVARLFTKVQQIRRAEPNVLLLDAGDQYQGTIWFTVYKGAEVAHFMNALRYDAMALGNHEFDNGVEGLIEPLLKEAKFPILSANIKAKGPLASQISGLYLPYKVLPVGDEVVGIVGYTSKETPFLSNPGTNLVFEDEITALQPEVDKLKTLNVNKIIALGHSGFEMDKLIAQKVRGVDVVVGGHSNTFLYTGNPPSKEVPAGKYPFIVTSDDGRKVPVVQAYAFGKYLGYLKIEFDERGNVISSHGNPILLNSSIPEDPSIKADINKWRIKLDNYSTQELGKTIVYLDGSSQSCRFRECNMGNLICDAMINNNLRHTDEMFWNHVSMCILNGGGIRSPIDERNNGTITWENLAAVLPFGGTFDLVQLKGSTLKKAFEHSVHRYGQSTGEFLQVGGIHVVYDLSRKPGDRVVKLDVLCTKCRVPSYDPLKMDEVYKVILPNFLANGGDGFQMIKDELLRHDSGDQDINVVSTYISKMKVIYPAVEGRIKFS
Description: cell-based or functional assay.

Experiment [4] deals with T4, Trypsin inhibitor type 1-S from Glycine max (Sigma, T-2327) (Glycine max, UniProt P01070 25-205).
T4 construct: Non-target molecule, amine-coupled to a CM5 chip
T4 sequence (looked up): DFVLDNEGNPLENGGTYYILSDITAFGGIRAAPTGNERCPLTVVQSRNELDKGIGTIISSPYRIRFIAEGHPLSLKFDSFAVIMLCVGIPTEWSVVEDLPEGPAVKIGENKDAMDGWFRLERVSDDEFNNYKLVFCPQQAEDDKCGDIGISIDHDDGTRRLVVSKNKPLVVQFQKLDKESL
Description: SPR, Biacore 8K, trypsin inhibitor immobilized on CM5 chip. The method, then:
as §1, §2

T1 sequence (P00698 19-147 limits assumed): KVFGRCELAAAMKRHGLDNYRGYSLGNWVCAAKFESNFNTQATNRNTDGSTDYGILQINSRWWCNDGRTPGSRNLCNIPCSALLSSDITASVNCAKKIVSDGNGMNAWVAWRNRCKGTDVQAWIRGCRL

B1: 900725 (humanized anti-CD73 antigen-binding protein) (antibody, V domains shown)
VH: QVQLVQSGAEVKKPGASVKLSCKASGYTFTSYWIHWVRQAPGQGLEWIGMIHPNSGSTYYNEKFKGRATLTVDKSTSTAYMELSSLRSEDTAVYYCARYYGSDYEWYFDVWGQGTTVTVSS
VL: DIQMTQSPSSMSASVGDRVTITCKASQNVRTAVVWYQQKPGKAPKALIYLASNRHTGVPDRFSGSGSGTDFTLTISSLQPEDFATYFCLQHWNYPYTFGQGTKLEIK
For the molecule B1, in experiment [1], the “non-specific binding amount (RU)” value came out at 20.3 RU. The binding result was “no binding (tested: 50 nM (highest analyte concentration))” in experiment [2] and “no binding (tested: 1000 nM antibody; 20 RU)” in experiment [4]. The “Endocytosis rate (%)” value in experiment [3] turned out to be 37.5%.

B2: 900726 (humanized anti-CD73 antigen-binding protein) (antibody, V domains shown)
VH: QVQLVQSGAEVKKPGASVKLSCKASGYTFTSYWIHWVRQAPGQGLEWIGMIHPNSGSTYYNEKFKGRATLTVDKSTSTAYMELSSLRSEDTAVYYCARYYGSDYEWYFDVWGQGTTVTVSS
VL: DIQMTQSPSSLSASVGDRVTITCKASQNVRTAVVWYQQKPGKAPKALIYLASNRHTGVPDRFSGSGSGTDFTLTISSLQPEDFATYYCLQHWNYPYTFGQGTKLEIK
As to B2, the “non-specific binding amount (RU)” value in experiment [1] was 17.7 RU. Further, the binding result is “no binding (tested: 50 nM (highest analyte concentration))” in experiment [2] and “no binding (tested: 1000 nM antibody; 20 RU)” in experiment [4].

B3: 900727 (humanized anti-CD73 antigen-binding protein) (antibody, V domains shown)
VH: QVQLVQSGAEVKKPGASVKVSCKASGYTFTSYWIHWVRQAPGQGLEWIGMIHPNSGSTYYAQKFQGRVTITVDKSTSTAYMELSSLRSEDTAVYYCARYYGSDYEWYFDVWGQGTTVTVSS
VL: DIQMTQSPSSMSASVGDRVTITCKASQNVRTAVVWYQQKPGKAPKALIYLASNRHTGVPDRFSGSGSGTDFTLTISSLQPEDFATYFCLQHWNYPYTFGQGTKLEIK
On to B3, for which, in experiment [1], the “non-specific binding amount (RU)” value was 17.6 RU. Also, the values for the binding result in experiment [2] and in experiment [4] were “no binding (tested: 50 nM (highest analyte concentration))” and “no binding (tested: 1000 nM antibody; 20 RU)”, respectively.

B4: 900728 (humanized anti-CD73 antigen-binding protein) (antibody, V domains shown)
VH: QVQLVQSGAEVKKPGASVKVSCKASGYTFTSYWIHWVRQAPGQGLEWIGMIHPNSGSTYYNEKFQGRVTMTVDKSTSTAYMELSSLRSEDTAVYYCARYYGSDYEWYFDVWGQGTTVTVSS
VL: DIQMTQSPSSLSASVGDRVTITCKASQNVRTAVVWYQQKPGKAPKALIYLASNRHTGVPDRFSGSGSGTDFTLTISSLQPEDFATYYCLQHWNYPYTFGQGTKLEIK
B4: the “non-specific binding amount (RU)” value in experiment [1] came out at 20.2 RU. Further, the binding result is “no binding (tested: 50 nM (highest analyte concentration))” in experiment [2] and “no binding (tested: 1000 nM antibody; 20 RU)” in experiment [4]. In addition, in experiment [3], the “Endocytosis rate (%)” value worked out at 33.9%.

B5: 900567 (human-mouse chimeric anti-CD73 antigen-binding protein expressed from 124A9 variable regions) (antibody, V domains shown)
VH: QVQLQQPGAELVKPGASVKLSCKASGYTFTSYWIHWVKQRPGQGLDWIGMIHPNSGSTYYNEKFKSKATLTVDKSSSTAYMQLSSLTSEDSAVYYCARYYGSDYEWYFDVWGTGTTVTVSS
VL: DIVMTQSQKFMSTSVGDRVSITCKASQNVRTAVVWYQQNPGQSPKALIYLASNRHTGVPDRFTGSGSGTDFTLTISNVHSEDLADYFCLQHWNYPYTFGGGTKLEIK
Turning to B5, the “non-specific binding amount (RU)” value in experiment [1] was 15.8 RU. The binding result was “no binding (tested: 50 nM (highest analyte concentration))” in experiment [2] and “no binding (tested: 1000 nM antibody; 20 RU)” in experiment [4]. The “Endocytosis rate (%)” value in experiment [3] was 26.9%.
